# Patent publication US20190031754A1 (Scripps Research, published 2019)
# Read-outs that look alike come from different tables or passages of the source.
# T1: human CD20 on HEK293 cells (Retrogenix array) (human, UniProt P11836 1-297)
# T1 construct: whole, on cells
# T1 sequence (looked up): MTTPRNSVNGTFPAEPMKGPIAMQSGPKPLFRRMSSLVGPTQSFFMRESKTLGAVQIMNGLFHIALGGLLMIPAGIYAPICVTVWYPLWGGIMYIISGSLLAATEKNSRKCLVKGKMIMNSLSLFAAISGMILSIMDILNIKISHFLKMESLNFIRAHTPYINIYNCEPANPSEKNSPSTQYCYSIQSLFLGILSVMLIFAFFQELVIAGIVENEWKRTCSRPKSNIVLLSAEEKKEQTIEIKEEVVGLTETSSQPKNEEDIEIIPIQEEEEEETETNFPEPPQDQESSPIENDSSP
# Key:
# [1] = target: T2, full-length human ROR2 on cells (human, UniProt Q01974 34-943); assay: flow cytometry, T47D cells (endogenous hROR2), IgG 100 ng/100 µL, anti-human Fc APC
# T2 construct: whole, on cells; the cells are named under assay; In the Western blot it is denatured; also called hROR2; cell surface human ROR2
# Ig [2] = target: T3, Ig; assay: flow cytometry, HEK 293F cells displaying the construct, IgG1 1 µg/mL, APC (binding) against PE (expression); on Vec cells Q2 6.53 and 73.5 in the PE- APC+ quadrant
# T3 construct: transmembrane segment; also called HA-Ig
# Ig+Fr [3] = target: T4, Ig+Fr (human); assay: as above
# T4 construct: two-domain fragment;transmembrane segment; also called HA-Ig+Fr
# [4] = target: T5, hROR2-T245 extracellular domain displayed on HEK 293F cells (human, UniProt Q01974 55-394; P09619 513-561); assay: as above
# T5 construct: range 55-394;range 513-561; also called complete ECD
# Ig [5] = target: T3, Ig; assay: flow cytometry, HEK 293F cells displaying the construct, IgG1 1 µg/mL, APC (binding) against PE (expression); on Vec cells Q2 1.86
# Ki = target: T6, Ki (human); assay: as above
# T6 construct: isolated domain;transmembrane segment; also called HA-Ki
# Fr+Ki = Fr+Ki (human); assay: as above
# Fr+Ki (human), sequence (chain, as listed by the source): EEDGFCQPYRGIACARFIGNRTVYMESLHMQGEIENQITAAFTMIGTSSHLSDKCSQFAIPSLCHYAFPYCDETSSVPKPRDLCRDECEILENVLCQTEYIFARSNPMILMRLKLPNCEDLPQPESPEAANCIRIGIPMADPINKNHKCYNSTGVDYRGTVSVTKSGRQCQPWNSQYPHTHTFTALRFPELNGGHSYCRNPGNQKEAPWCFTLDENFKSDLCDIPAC
# Fr = target: T7, Fr (human); assay: as above
# T7 construct: isolated domain;transmembrane segment; also called HA-Fr
# Ig+Fr [6] = target: T4, Ig+Fr; assay: as above
# [7] = target: T5, hROR2-T245 extracellular domain …; assay: as above
# [8] = target: T1, human CD20 on HEK293 cells (Retrogenix …); assay: Retrogenix cell microarray, identical slides of fixed HEK293 cells, AlexaFluor647 anti-human IgG Fc
# [9] = target: T8, recombinant human twin strep-tagged ROR2 extracellular domain (human, UniProt Q01974 34-403); assay: ELISA, IgG titrated on coated twin-strep human ROR2 ECD; fit printed as IC50
# T8 construct: extracellular domain; Made in HEK293T, Streptactin purified; also called Human ROR2-TwinStrep; human ROR2
# [10] = target: T9, recombinant murine twin strep-tagged ROR2 extracellular domain (mouse, UniProt Q9Z138 34-403); assay: ELISA on coated twin-strep mouse ROR2 ECD (FIG. 14B); patent's own reading of the ELISA curves on coated mouse ROR2 (FIG. 14, panel B)
# T9 construct: extracellular domain; Made in HEK293T, Streptactin purified; also called mouse ROR2; murine ROR2
# T9 sequence (Q9Z138 other isoform, or with tags, fused parts or gaps): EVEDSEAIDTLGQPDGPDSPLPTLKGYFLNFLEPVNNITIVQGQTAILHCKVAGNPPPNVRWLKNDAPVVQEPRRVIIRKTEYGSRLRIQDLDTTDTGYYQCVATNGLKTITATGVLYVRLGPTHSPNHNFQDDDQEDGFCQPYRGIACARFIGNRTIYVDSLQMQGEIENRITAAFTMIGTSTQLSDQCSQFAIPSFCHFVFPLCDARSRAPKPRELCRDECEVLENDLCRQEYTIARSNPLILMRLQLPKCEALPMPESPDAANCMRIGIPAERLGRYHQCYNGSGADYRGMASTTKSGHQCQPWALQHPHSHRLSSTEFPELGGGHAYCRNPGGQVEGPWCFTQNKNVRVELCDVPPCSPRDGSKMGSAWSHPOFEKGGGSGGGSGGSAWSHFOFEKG
# [11] = target: T10, anti-human Fc (Jackson ImmunoResearch, 109-006-008); assay: ELISA, IgG titrated on coated anti-human Fc; fit printed as IC50
# T10 construct: Coated on a control plate to capture the chimeric IgG1 antibodies through their human Fc; also called IgG
# [12] = target: T11, recombinant cynomolgus twin strep-tagged ROR2 extracellular domain (cynomolgus monkey, UniProt A0A7N9D5U8 34-403); assay: ELISA, IgG titrated on coated twin-strep cynomolgus ROR2 ECD; fit printed as IC50
# T11 construct: extracellular domain; Made in HEK293T, Streptactin purified; also called cynomolgus ROR2; cynomolgus ROR2-TwinStrep
# [13] = target: T8, recombinant human twin strep-tagged …; assay: ELISA, IgG titrated on coated twin-strep human ROR2 ECD; fit printed as IC50; remark: listed apart in the source
# [14] = target: T10, anti-human Fc (Jackson ImmunoResearch, …); assay: ELISA, IgG titrated on coated anti-human Fc; fit printed as IC50; remark: listed apart in the source
# [15] = target: T9, recombinant murine twin strep-tagged …; assay: ELISA, IgG titrated on coated twin-strep mouse ROR2 ECD; fit printed as IC50
# [16] = target: T8, recombinant human twin strep-tagged …; assay: SPR, Biacore T200, IgG captured by anti-human Fcγ, ROR2-TwinStrep as analyte, 1:1 Langmuir
# [17] = target: T11, recombinant cynomolgus twin …; assay: as above
binder,measurement,setting,value
"XBR2-TOP72 (IgG) (antibody, V domains shown, also called chimeric rabbit/human IgG1 XBR2-TOP72) VH: QEQLEESGGRLVTPGTPLTLTCTVSGIDLSSNAMSWVRQAPGKGLEYVGFINGGGGVHYASWARGRFTISKTSTTVDLKITSPTTEDTATYFCARAGTTYYTSFNLWGPGTLVTISS VL: QFVLTQSPSASAALGSSAKLTCTLSSAHKTYTIAWYQQQQGEAPRLLMMLRTDGSYTKGTGVPDRFSGSSSGADRYLIISSVQADDAAGYYCGADYSGGYVFGGGTQLTVTG",binding result,[1],binds
"IgG1 XBR2-433 (antibody, V domains shown) VH: QSVKESEGGLFKPTDTLTLTCTVSGFSLSTYGVSWVRQAPGNGLEWIGAIGSSGSANYASWAKDRSTITRNTNLNTVTLKMTSLTAADTATYFCARDGYYSSGWGPYFNIWGPGTLVTISS VL: SFVLTQPASVQVNLGQTVSLTCTADTLSRSYASWYQQKPGQAPVLLIYRDTSRPSGVPDRFSGSSSGNTATLTISGAQAGDEADYYCATSGGSGSNPQYVFGGGTQLTVTG",cells in quadrant Q2 (PE+ APC+),Ig [2],67%
same,cells in quadrant Q2 (PE+ APC+),Ig+Fr [3],50.7%
same,cells in quadrant Q2 (PE+ APC+),[4],90.6%
"IgG1 XBR2-416 (antibody, V domains shown, also called chimeric rabbit/human IgG1 XBR2-416) VH: QEQLEESGGRLVTPGTPLTLTCTVSGFSLSSYWMSWVRQAPGKGLEWIGTITPGGNTDYATWAKARFTVSKTSTTVDLKITSPTTEDTATYFCARGIGGAADLWGPGTLVTISS VL: AQVLTQTPSSTSAAVGGTVTIKCQASQSISSSDLSWYQQKPGQPPKLLIYATSYLASGVPSRFKGSGSGTEYTLTISGVQREDAATYYCLGGYPNTSYRSAFGGGTKVEIK",cells in quadrant Q2 (PE+ APC+),Ig [5],3.22%
same,cells in quadrant Q2 (PE+ APC+),Ki,90.2%
same,cells in quadrant Q2 (PE+ APC+),Fr+Ki,69.7%
same,cells in quadrant Q2 (PE+ APC+),Fr,4.05%
same,cells in quadrant Q2 (PE+ APC+),Ig+Fr [6],3.9%
same,cells in quadrant Q2 (PE+ APC+),[7],55.9%
"chimeric rabbit/human IgG1 XBR2-401 (antibody, V domains shown) VH: QSVKESEGGLFKPTDTLTLTCTVSGFSLSSYGVTWVRQAPGSGLEWIGYINTAGNTYYASWAKSRSTITRNTNENTVTLKMTSLTAADTATYFCARDWTSLNIWGPGTLVTVSS VL: DPMLTQTPSSTSTAVGDTVTIKCQASQSISSDLSWYQQKPGQRPKLLIYQASTLASGVPSRFKGSGYGTEYTLTISGVQREDAAIYYCLGGYADASYRTAFGGGTKLEIK",binding result,[8],no binding (tested: 20 µg/mL)
"ERR2-316 (mAb005) (antibody, human IgG1, V domains shown, Full-length chimeric rabbit/human IgG1, human IgH-gamma1 and IgL-kappa constant regions; C-terminal tags HC: LPETG-Strep, LC: G5SLPETG-Strep; also called mAb0005) VH: QKQLVESGGRLVTPGGSLTLTCTVSGFSLSKYGVSWVRQAPGSGLEYIGTIGGSGTSYYASWAKSRSTITRNTNLNTVTLKMTSLTAADTATYFCARYFGWNTGFDIWGPGTLVTISS VL: DPVMTQTPSSVSEPVGGTVTIKCQASQSISNALAWYQQKPGQPPKRLIYKASTPASGVPSRFKGSRSGTEYTLTISGVQREDAATYYCLGFSVVSNDGWAFGAGTNVEIK",IC50,[9],0.0299 µg/mL
same,binding result,[10],no binding (tested: 0.5 µg/mL highest concentration)
same,IC50,[11],0.04 µg/mL
same,IC50,[12],0.044 µg/mL
same,IC50,[13],0.0407 µg/mL
same,IC50,[14],0.0112 µg/mL
"ERR2-317 (mAb006) (antibody, human IgG1, V domains shown, Full-length chimeric rabbit/human IgG1, human IgH-gamma1 and IgL-kappa constant regions; C-terminal tags HC: LPETG-Strep, LC: G5SLPETG-Strep) VH: QSLEESGGRLVTPGTPLTLTCTASGFSLSSYDMIWVRQAPGKGLEYIGIINAGGNTYYASWAKGRFTISRTSTTVDLKMTSPTTEDTATYFCARGSSWTGDIWGPGTLVTVSS VL: DPVLTQTPSSTSAAVGGTVTIKCQASQSISSYLSWYQQKPGQPPKQLIYAASTLASGVPSRFKGSGSGTEYTLTISGVQREDAATYYCLGGYASASYQTAFGGGTKVEIK",IC50,[9],1.35 µg/mL
same,binding result,[10],no binding (tested: 0.5 µg/mL highest concentration)
same,IC50,[11],0.0391 µg/mL
same,IC50,[12],0.019 µg/mL
same,IC50,[13],0.0168 µg/mL
same,IC50,[14],0.0084 µg/mL
"ERR2-Top35 (mAb130) (antibody, V domains shown) VH: QSVKESEGGLFKPMDTLTLTCTVSGFSLNTYGVSWVRQAPGNGLEWIGAVGSSGATNYASWAKSRSTITRNTNENTVTLKMTSLTAADTATYFCARDGYYSSGWGPYFSIWGPGTLVTVSS VL: SFVLTQPASVQVNLGQTVSLTCTAETLRSSYASWYQQKPGQAPVLLIYRDTSRPSGVPDRFSGSSSGNTATLTISGAQAGDEADYYCATSDGSGSRYYVFGGGTQLTVTG",IC50,[9],0.0244 µg/mL
same,IC50,[15],0.0173 µg/mL
same,IC50,[11],0.0419 µg/mL
same,IC50,[12],0.0531 µg/mL
same,IC50,[13],0.0462 µg/mL
same,IC50,[14],0.0143 µg/mL
"ERR2-302 (mAb004) (antibody, human IgG1, V domains shown, Full-length chimeric rabbit/human IgG1, human IgH-gamma1 and IgL-lambda constant regions; C-terminal tags HC: LPETG-Strep, LC: G5SLPETG-Strep) VH: QKQLVESGGGLVKPGGSLTLTCTVSGFSLSSYAIGWVRQAPGNGLEWIGIINSYGSTYYASWAKSRSTITRNTNLNTVTLKMTSLTAADTATYFCARSPYGYVSAWGYHRLDLWGQGTLVTISS VL: SYELTQLPSVSVSLGQTARITCGGASIGSKVVHWYQQKPGLAPGLLIYDDDERPSGVPDRFSGSNSGDTATLTISGAQAGDEAEYYCQLWDGSDVVFGGGTQLTVTG",IC50,[9],0.102 µg/mL
same,IC50,[15],0.0606 µg/mL
same,IC50,[11],0.0322 µg/mL
same,Kd,[16],52.4 nM
same,koff,[16],0.0056 s⁻¹
same,kon,[16],107000 M⁻¹ s⁻¹
same,Kd,[17],48.6 nM
same,koff,[17],0.00527 s⁻¹
same,kon,[17],108000 M⁻¹ s⁻¹
same,IC50,[12],0.0071 µg/mL
same,IC50,[13],0.0055 µg/mL
same,IC50,[14],0.0134 µg/mL
"ERR2-308 (mAb037) (antibody, human IgG1, V domains shown, Full-length chimeric rabbit/human IgG1, human IgH-gamma1 and IgL-kappa constant regions; C-terminal tags HC: LPETG-Strep, LC: G5SLPETG-Strep) VH: QEQLEESGGRLVTPGTPLTLTCAVSGFSLSNYAMGWVRQAPGEGLEYIGWISAGGGAYYASWVNGRFTISKTSSTVDLKMTSLTAADTATYFCARGASNGCDLWGPGTLVTVSS VL: DPMLTQTPSSVSAVVGGTVTIKCQASQSITSWLSWYQQKPGQPPKLLIYGASHLASGVPSRFKGSGYGTEFTLTISGIQREDAATYYCLGGYSNSDIVFGGGTELEIL",IC50,[9],0.467 µg/mL
same,binding result,[10],no binding (tested: 0.5 µg/mL highest concentration)
same,IC50,[11],0.0336 µg/mL
same,Kd,[16],11.2 nM
same,koff,[16],0.000153 s⁻¹
same,kon,[16],13700 M⁻¹ s⁻¹
same,Kd,[17],5.4 nM
same,koff,[17],0.000127 s⁻¹
same,kon,[17],23800 M⁻¹ s⁻¹
same,IC50,[12],0.0046 µg/mL
same,IC50,[13],0.0186 µg/mL
same,IC50,[14],0.0167 µg/mL
